Experiment [1] addresses T1, human FcRH5 protein fragment (soluble) (human, UniProt Q96RD9 16-851).
T1 construct: whole entry named; also called soluble human FcRH5; Human FcRH5 (BIACORE analyte)
T1 sequence: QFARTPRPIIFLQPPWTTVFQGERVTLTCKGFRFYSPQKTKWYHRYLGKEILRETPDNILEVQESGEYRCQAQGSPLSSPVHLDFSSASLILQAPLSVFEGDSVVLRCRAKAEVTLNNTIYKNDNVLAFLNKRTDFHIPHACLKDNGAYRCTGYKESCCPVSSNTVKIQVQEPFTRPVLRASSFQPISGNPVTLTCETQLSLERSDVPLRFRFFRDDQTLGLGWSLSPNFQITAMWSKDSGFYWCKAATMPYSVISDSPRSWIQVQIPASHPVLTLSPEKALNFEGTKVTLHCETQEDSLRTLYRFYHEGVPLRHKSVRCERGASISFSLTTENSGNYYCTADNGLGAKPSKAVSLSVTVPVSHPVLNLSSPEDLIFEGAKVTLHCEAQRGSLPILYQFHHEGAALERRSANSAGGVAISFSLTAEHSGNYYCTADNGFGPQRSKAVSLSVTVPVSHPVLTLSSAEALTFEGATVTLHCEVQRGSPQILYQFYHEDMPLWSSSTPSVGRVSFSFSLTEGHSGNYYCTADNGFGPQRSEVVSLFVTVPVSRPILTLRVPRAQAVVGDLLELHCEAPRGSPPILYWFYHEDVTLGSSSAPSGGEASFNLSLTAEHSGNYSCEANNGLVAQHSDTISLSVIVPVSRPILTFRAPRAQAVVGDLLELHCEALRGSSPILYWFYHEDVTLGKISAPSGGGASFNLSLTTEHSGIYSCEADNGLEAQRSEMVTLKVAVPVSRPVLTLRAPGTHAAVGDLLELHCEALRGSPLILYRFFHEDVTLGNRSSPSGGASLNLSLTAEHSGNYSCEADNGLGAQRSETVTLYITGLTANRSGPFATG
The experiment can be described thus: BIACORE, human IgG1, soluble human FcRH5.

For experiment [2], the target named is T1, human FcRH5 protein fragment (soluble). The experiment can be described thus: SPR (BIACORE), IgG captured via anti-human IgG, FcRH5 protein fragment as analyte (100 and 500 nM). The protocol: (§1) Briefly, a human IgG capture surface was generated on a Series S CM5 chip using amine coupling and the human IgG capture kit (GE Life Sciences, Piscataway, NJ). Test antibodies were then captured on flow cells 2, 3, or 4, with flow cell 1 used as a reference. An FcRH5 protein fragment was used as the analyte, with a flow rate of […]. Between injections the capture surface was regenerated by a 30-second injection of 3M magnesium chloride or 10 mM glycine, pH 1.5. Interactions were assessed at 25° C. in 10 mM HEPES pH7.4, 150 mM NaCl, and 0.05% Tween 20 (HBSP). Reference data from the reference flow cell and from injection of buffer alone were subtracted prior to kinetic analysis. Kinetic information was calculated by fitting data to a 1:1 binding model. Reference subtraction and data fitting were performed using BIAevaluation software (GE Life Sciences, Piscataway, NJ).
(§2) For affinity screening of HVR-H2 Trp52 and Met64 variants (Table 7), antibodies were expressed by transient transfection of Expi293 cells and purified using tip columns that were custom packed with affinity resin MabSelect SuRe (Glygen Corp., Columbia, MD & GE Life Sciences, Piscataway, NJ). […] Binding of FcRH5 protein fragment to captured antibodies was monitored at 100 nM and 500 nM. Association and dissociation were monitored at a flow rate of 40 μl/min, for 180 s and 300 s, respectively.

For experiment [3] the target is unchanged. Description: SPR, hIgG capture, screening. As for the experimental part:
as §1, §2

Numbering of substitutions follows the chain as printed. Names and notes keep the numbering of the source.

B1: 1G7.v1C (antibody, human IgG1, V domains shown)
VH: EVQLVESGPGLVKPSETLSLTCTVSGFPLTRFGVHWVRQPPGKGLEWLGVIWRGGSTDYNAAFMSRLTISKDNSKNQVSLKLSSVTAADTAVYYCSNHYYGSSDYALDNWGQGTLVTVSS
VL: DIQMTQSPSSLSASVGDRVTITCKASQDVSNIVVWFQQKPGKSPKLLIYSASYRYTGVPSRFSGSGSGTDFTLTISSLQPEDFATYYCQQHYSSPYTFGQGTKVEIK
notes: human IgG1 with the light chain of hu1G7.v1; also called C (hu1G7.v1 heavy chain S28P)
As to B1, in experiment [1], the “Fold improvement over hu1G7.v1” value was 1.1 fold and the Kd stood at 13.3 nM.

B2: 1G7.v1I (antibody, human IgG1, V domains shown)
VH: B1 VH with P28S, S65P
VL: B1 VL
notes: human IgG1 with the light chain of hu1G7.v1; also called I (hu1G7.v1 heavy chain S65P)
With B2, in experiment [1], the “Fold improvement over hu1G7.v1” value was determined as 0.9 fold and binding was characterised by a dissociation constant (Kd) of 16.2 nM.

B3: hu1G7.v87 (antibody, V domains shown)
VH: B1 VH with P28S, M64V
VL: B1 VL
notes: Human IgG
For B3, the figures for the Kd in experiment [2] and in experiment [3] were 27.4 nM and 27 nM, respectively.

B4: hu1G7.v1 heavy chain W52L with light chain of hu1G7.v1.5 (antibody, V domains shown)
VH: B1 VH with P28S, W52L
VL: B1 VL with A51G, S52Y, H91Q, Y92F, S93Q, S94P
notes: human IgG
Turning to B4, the Kd came out at 125 nM in experiment [2] and 130 nM in experiment [3].

B5: hu1G7.v1 heavy chain W52Y with light chain of hu1G7.v1.3 (antibody, V domains shown)
VH: B1 VH with P28S, W52Y
VL: B1 VL with S30R, S43A, A51G, T56S, H91Q, S94P
notes: human IgG
Turning to B5, the dissociation constant Kd in experiment [2] was 641 nM; in experiment [3], 640 nM.

B6: hu1G7.v1 heavy chain W52H with light chain of hu1G7.v1.5 (antibody, V domains shown)
VH: B1 VH with P28S, W52H
VL: B1 VL with A51G, S52Y, H91Q, Y92F, S93Q, S94P
notes: human IgG
For the molecule B6, the values for the dissociation constant Kd in experiment [2] and in experiment [3] were 67.3 nM and 67 nM, respectively.

B7: 1G7.v1J (antibody, human IgG1, V domains shown)
VH: B1 VH with P28S, K81M
VL: B1 VL
notes: human IgG1 with the light chain of hu1G7.v1; also called J (hu1G7.v1 heavy chain K81M)
Regarding B7, in experiment [1], the “Fold improvement over hu1G7.v1” value worked out at 1 fold and the Kd turned out to be 15.3 nM.

B8: 1G7.v1L (antibody, human IgG1, V domains shown)
VH: B1 VH with P28S, S103P
VL: B1 VL
notes: human IgG1 with the light chain of hu1G7.v1; also called L (hu1G7.v1 heavy chain S100P)
For B8, in experiment [1], the “Fold improvement over hu1G7.v1” value came to 3 fold and the Kd worked out at 4.8 nM.

B9: hu1G7.v1 heavy chain W52L with light chain of hu1G7.v1.4 (antibody, V domains shown)
VH: B1 VH with P28S, W52L
VL: B1 VL with S30R, I32L, S43A, A51G, T56S, S94P
notes: human IgG
Consider B9, for which the Kd in experiment [2] and in experiment [3] was 92 nM in each case.

B10: 1G7.v1H (antibody, human IgG1, V domains shown)
VH: B1 VH with P28S, S65D
VL: B1 VL
notes: human IgG1 with the light chain of hu1G7.v1; also called H (hu1G7.v1 heavy chain S65D)
As to B10, in experiment [1], the “Fold improvement over hu1G7.v1” value stood at 1 fold and the affinity, expressed as Kd, was 15 nM.

B11: hu1G7.v1 heavy chain W52Y with light chain of hu1G7.v1.5 (antibody, V domains shown)
VH: B1 VH with P28S, W52Y
VL: B1 VL with A51G, S52Y, H91Q, Y92F, S93Q, S94P
notes: human IgG
With B11, the Kd in experiment [2] turned out to be 177 nM; in experiment [3], 180 nM.

B12: hu1G7.v1 heavy chain W52H with light chain of hu1G7.v1.4 (antibody, V domains shown)
VH: B1 VH with P28S, W52H
VL: B1 VL with S30R, I32L, S43A, A51G, T56S, S94P
notes: human IgG
Regarding B12, the dissociation constant (Kd) was found to be 60.4 nM in experiment [2] and 60 nM in experiment [3].

B13: hu1G7.v1 heavy chain W52H with light chain of hu1G7.v1.7 (antibody, V domains shown)
VH: B1 VH with P28S, W52H
VL: B1 VL with S30R, I32L, S43A, A51G, S52Y, S93Q, S94P
notes: human IgG
For the molecule B13, the values for the Kd in experiment [2] and in experiment [3] were 89.8 nM and 90 nM, respectively.

B14: hu1G7.v1 heavy chain W52L with light chain of hu1G7.v1.7 (antibody, V domains shown)
VH: B1 VH with P28S, W52L
VL: B1 VL with S30R, I32L, S43A, A51G, S52Y, S93Q, S94P
notes: human IgG
For the molecule B14, the values for the dissociation constant Kd in experiment [2] and in experiment [3] were 129 nM and 130 nM, respectively.

B15: 1G7.v1G (antibody, human IgG1, V domains shown)
VH: B1 VH with P28S, M64G
VL: B1 VL
notes: human IgG1 with the light chain of hu1G7.v1; also called G (hu1G7.v1 heavy chain M64G)
Turning to B15, in experiment [1], the “Fold improvement over hu1G7.v1” value worked out at 1 fold and the equilibrium dissociation constant (Kd) was 14.4 nM.

B16: hu1G7.v1 heavy chain W52L with light chain of hu1G7.v1 (antibody, V domains shown)
VH: B1 VH with P28S, W52L
VL: B1 VL
notes: human IgG
Consider B16, for which the Kd in experiment [2] was 103 nM; in experiment [3] it was 100 nM.

B17: hu1G7.v1 heavy chain W52H with light chain of hu1G7.v1.6 (antibody, V domains shown)
VH: B1 VH with P28S, W52H
VL: B1 VL with S43A, A51G, S52Y, T56S, H91Q, S93Q, S94P
notes: human IgG
For the molecule B17, the Kd is 109 nM in experiment [2] and 110 nM in experiment [3].

B18: 1G7.v1K (antibody, human IgG1, V domains shown)
VH: B1 VH with P28S, S84D
VL: B1 VL
notes: human IgG1 with the light chain of hu1G7.v1; also called K (hu1G7.v1 heavy chain S82bD)
As for B18, in experiment [1], the “Fold improvement over hu1G7.v1” value came to 1 fold and the Kd stood at 15 nM.

B19: 1G7.v1D (antibody, human IgG1, V domains shown)
VH: B1 VH with P28S, L29T
VL: B1 VL
notes: human IgG1 with the light chain of hu1G7.v1; also called D (hu1G7.v1 heavy chain L29T)
As for B19, in experiment [1], the “Fold improvement over hu1G7.v1” value amounted to 2.2 fold and the Kd came out at 6.7 nM.

B20: hu1G7.v1 heavy chain W52L with light chain of hu1G7.v1.6 (antibody, V domains shown)
VH: B1 VH with P28S, W52L
VL: B1 VL with S43A, A51G, S52Y, T56S, H91Q, S93Q, S94P
notes: human IgG
Turning to B20, the Kd in experiment [2] and in experiment [3] was 250 nM in each case.

B21: hu1G7.v1 heavy chain W52Y with light chain of hu1G7.v1.7 (antibody, V domains shown)
VH: B1 VH with P28S, W52Y
VL: B1 VL with S30R, I32L, S43A, A51G, S52Y, S93Q, S94P
notes: human IgG
As to B21, the dissociation constant (Kd) was 136 nM in experiment [2] and 140 nM in experiment [3].

B22: hu1G7.v1 heavy chain W52Y with light chain of hu1G7.v1.4 (antibody, V domains shown)
VH: B1 VH with P28S, W52Y
VL: B1 VL with S30R, I32L, S43A, A51G, T56S, S94P
notes: human IgG
B22: the Kd in experiment [2] turned out to be 131 nM; in experiment [3] it was 130 nM.

B23: 1G7.v1E (antibody, human IgG1, V domains shown)
VH: B1 VH with P28S, V37Y
VL: B1 VL
notes: human IgG1 with the light chain of hu1G7.v1; also called E (hu1G7.v1 heavy chain V37Y)
Consider B23, for which, in experiment [1], the “Fold improvement over hu1G7.v1” value was 1.3 fold and the dissociation constant (Kd) turned out to be 11 nM.

B24: hu1G7.v86 (antibody, human IgG1, V domains shown)
VH: B1 VH with P28S, M64V
VL: B1 VL with I32L, A51G, T56S, S94P
notes: human IgG1
Take B24: in experiment [1], the “Fold improvement over hu1G7.v1” value amounted to 10.3 fold and the equilibrium dissociation constant (Kd) was determined as 1.4 nM.

B25: hu1G7.v1 heavy chain W52L with light chain of hu1G7.v1.3 (antibody, V domains shown)
VH: B1 VH with P28S, W52L
VL: B1 VL with S30R, S43A, A51G, T56S, H91Q, S94P
notes: human IgG
B25: the equilibrium dissociation constant (Kd) was 239 nM in experiment [2] and 240 nM in experiment [3].

B26: hu1G7.v1 heavy chain W52Y with light chain of hu1G7.v1 (antibody, V domains shown)
VH: B1 VH with P28S, W52Y
VL: B1 VL
notes: human IgG
Consider B26, for which the results for the Kd in experiment [2] and in experiment [3] were 146 nM and 150 nM, respectively.

B27: 1G7.v1F (antibody, human IgG1, V domains shown)
VH: B1 VH with P28S, A61P
VL: B1 VL
notes: human IgG1 with the light chain of hu1G7.v1; also called F (hu1G7.v1 heavy chain A61P)
Regarding B27, in experiment [1], the “Fold improvement over hu1G7.v1” value was found to be 1.2 fold and the dissociation constant (Kd) was found to be 11.7 nM.

B28: hu1G7.v1 heavy chain W52Y with light chain of hu1G7.v1.6 (antibody, V domains shown)
VH: B1 VH with P28S, W52Y
VL: B1 VL with S43A, A51G, S52Y, T56S, H91Q, S93Q, S94P
notes: human IgG
B28: the Kd was found to be 529 nM in experiment [2] and 530 nM in experiment [3].

These data come from patent US20240383984A1 (Genentech, published 2024).
